One molecule from article PMC8897262 (Journal of molecular biology, 2021) can be followed below.

In assay [1] the target is T1, CD99 peptide containing the 10A1 epitope, Ac-GENDDPRPPNPPKPM-amide (human).
T1 chain: Ac-GENDDPRPPNPPKPM-NH2
The experiment in a line: crystal structure.

Assay [2] deals with T2, CD99, endogenously expressed on T-ALL cells (Jurkat, KOPT-K1) (human (endogenous in Jurkat and KOPT-K1)) (UniProt P14209).
T2 sequence (chain, O-linked glycosylation): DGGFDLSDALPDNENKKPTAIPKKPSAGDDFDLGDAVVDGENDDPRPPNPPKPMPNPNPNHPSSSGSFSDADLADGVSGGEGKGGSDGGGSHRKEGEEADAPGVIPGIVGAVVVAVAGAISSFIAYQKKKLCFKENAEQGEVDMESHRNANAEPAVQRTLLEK

B1: 10A1 Fab (Fab, V domains shown)
VH: QVQLQQSGPVLVKPSQTLSLTCAISGDSISSDTTAWSWIRRSPSRGLEWLGWTYYRSKWFNYYAVSVKGRVTINPDTSKNQFSLQLSSVTPEDTAVYYCARGNGNGGMDVWGQGTTVTVSS
VL: SYVLTQPASASVSPGQTARITCSGDALPKQYAYWYQQKPGQAPVLVIFKDSERPSGVPERFSGSSSGTTVTLTISGAQAEDEADYYCQSVDNSGFYQVFGGGTQLTVL
For B1, the binding result in assay [1] was “binds”. In assay [2], the IC50 (nM Fv) of cytotoxicity, Annexin V staining of KOPT-K1 cells after 18 h is > 2000 nM Fv.
